In patent EP4696329A1 (BioRay Pharmaceutical Co., Ltd., dated 2024):
Where a chain is given by its changes, count along the chain named. In names and notes the source's numbering stands.

B1: chimeric antibody ch-D10 (antibody, human IgG1, kappa, V domains shown)
VH: QVQLKESGPGLVAPSQTLSITCTVSGFSLTSYGVHWVRQPPGKGLEWLGVIWAGGFTNYNSALKSRLSISKDNSKSQVLLKMTSLQTDDTAMYYCARRGSSYSMDYWGQGTSVTVSS
VL: EIVLSQSPAITAASLGQKVTITCSASSNVSYIHWYQQRSGTSPRPWIYEISKLASGVPVRFSGSGSGTSYSLTISSMEAEDAAIYYCQQWNYPLITFGSGTKLEIQR
notes: VH/VL of murine D10 on human IgG1 / kappa constant regions
B2: humanized antibody BRHu-3 (antibody, human IgG1, kappa, V domains shown)
VH: QVQLQESGPGLVKPSETLSLTCTVSGFSLTSYGVHWIRQPPGKGLEWLGVIWAGGFTNYNSALKSRLTISKDNSKNQVSLKLSSVTAADTAVYYCARRGSSYSMDYWGQGTLVTVSS
VL: EIVLTQSPATLSLSPGERATLSCSASSNVSYIHWYQQKPGQAPRPWIYEISKLASGIPARFSGSGSGTDYTLTISSLEPEDFAVYYCQQWNYPLITFGQGTKLEIKR
notes: humanized D10, human IgG1 / kappa
B3: YR-8 (antibody, human IgG1, kappa, V domains shown)
VH: B2 VH with S31R, A62D, S100D, D105K
VL: B2 VL with N28Q, I50T
B4: YR-8-ES (antibody, human IgG1, kappa, V domains shown)
VH: B2 VH with S31R, N60E, A62D, S100D, D105K
VL: B2 VL with N28Q, I50T
notes: YR-8 with N60E (Kabat) in the heavy chain; human IgG1 / kappa
B5: KIH YR8/ZH3, an ROR1-targeting biepitopic antibody (bispecific antibody, human IgG1, kappa)
heavy 1: not shown
light 1: EIVLTQSPATLSLSPGERATLSCSASSQVSYIHWYQQKPGQAPRPWIYETSKLASGIPARFSGSGSGTDYTLTISSLEPEDFAVYYCQQWNYPLITFGQGTKLEIKRTVAAPSVFIFPPSDEQLKSGTASVVCLLNNFYPREAKVQWKVDNALQSGNSQESVTEQDSKDSTYSLSSTLTLSKADYEKHKVYACEVTHQGLSSPVTKSFNRGEC
heavy 2: not shown
light 2: DIQMTQSPSAMSASVGDRVTITCKASQDIYSYLSWFQQKPGKVPKTLIYRANRLVRGVPSRFSGSGSGQEYTLTISSLQPEDMATYYCLQYDEFPYTFGQGTKLEIKRTVAAPSVFIFPPSDEQLKSGTASVVCLLNNFYPREAKVQWKVDNALQSGNSQESVTEQDSKDSTYSLSSTLTLSKADYEKHKVYACEVTHQGLSSPVTKSFNRGEC
notes: chain 1: YR-8-ES arm with Fc knob (T366W); chain 3: AM3-ZH3 arm with Fc hole (T366S, L368A, Y407V); made by reduction and mixing of YR-8-ES variant 1 and AM3-ZH3 variant 1
B6: AM3-ZH3 (antibody, human IgG1, kappa, V domains shown)
VH: EVQLVESGGGLVQPGGSLRLSCAASGFTFSSYPMSWVRQAPGKGLEWVSSISTGASAYFPDSVKGRFTISRDNAKNSLYLQMNSLRAEDTAVYYCARITTSTWYMDVWGQGTTVTVSS
VL: DIQMTQSPSAMSASVGDRVTITCKASQDIYSYLSWFQQKPGKVPKTLIYRANRLVRGVPSRFSGSGSGQEYTLTISSLQPEDMATYYCLQYDEFPYTFGQGTKLEIKR
notes: human IgG1 / kappa
B7: H10-hVH4-hVL4 (antibody, human IgG1, kappa, V domains shown)
VH: B6 VH with P33A, M105F
VL: B6 VL with Y30N, R56D
notes: also called H10-VH4VL4
B8: YR-4 (antibody, human IgG1, kappa, V domains shown)
VH: B2 VH with S31R, L48I, A62S, L67V, S100D, S101G, D105Q
VL: B2 VL with N28Q
B9: YR-21 (antibody, human IgG1, kappa, V domains shown)
VH: B2 VH with S31R, A62G, S100D, S101Q, D105G
VL: B2 VL with N28Q, I50T
B10: YR-10 (antibody, human IgG1, kappa, V domains shown)
VH: B2 VH with S31R, L48I, A62T, L67V, S100N, S101Q, D105K
VL: B2 VL with N28Q, I50T, T96S
B11: YR-11 (antibody, human IgG1, kappa, V domains shown)
VH: B2 VH with S31R, L48I, L67V, S100N, S101E, D105S
VL: B2 VL with N28Q, I50T
B12: YR-8-NT (antibody, human IgG1, kappa, V domains shown)
VH: B2 VH with S31R, S61T, A62D, S100D, D105K
VL: B2 VL with N28Q, I50T
notes: YR-8 with S61T (Kabat) in the heavy chain
B13: YR-8-NA (antibody, human IgG1, kappa, V domains shown)
VH: B2 VH with S31R, S61A, A62D, S100D, D105K
VL: B2 VL with N28Q, I50T
notes: YR-8 with S61A (Kabat) in the heavy chain
B14: YR-8-NL (antibody, human IgG1, kappa, V domains shown)
VH: B2 VH with S31R, S61L, A62D, S100D, D105K
VL: B2 VL with N28Q, I50T
notes: YR-8 with S61L (Kabat) in the heavy chain
B15: YR-8-NV (antibody, human IgG1, kappa, V domains shown)
VH: B2 VH with S31R, S61V, A62D, S100D, D105K
VL: B2 VL with N28Q, I50T
notes: YR-8 with S61V (Kabat) in the heavy chain
B16: YR-8-NI (antibody, human IgG1, kappa, V domains shown)
VH: B2 VH with S31R, S61I, A62D, S100D, D105K
VL: B2 VL with N28Q, I50T
notes: YR-8 with S61I (Kabat) in the heavy chain

Biological target: T1, human ROR1 expressed on cells (MDA-MB-231, Jeko-1, PA-1, HCC1187) (human, UniProt Q01973 30-937)
T1 construct: also called hROR1
T1 sequence (Q01973 30-937 limits assumed): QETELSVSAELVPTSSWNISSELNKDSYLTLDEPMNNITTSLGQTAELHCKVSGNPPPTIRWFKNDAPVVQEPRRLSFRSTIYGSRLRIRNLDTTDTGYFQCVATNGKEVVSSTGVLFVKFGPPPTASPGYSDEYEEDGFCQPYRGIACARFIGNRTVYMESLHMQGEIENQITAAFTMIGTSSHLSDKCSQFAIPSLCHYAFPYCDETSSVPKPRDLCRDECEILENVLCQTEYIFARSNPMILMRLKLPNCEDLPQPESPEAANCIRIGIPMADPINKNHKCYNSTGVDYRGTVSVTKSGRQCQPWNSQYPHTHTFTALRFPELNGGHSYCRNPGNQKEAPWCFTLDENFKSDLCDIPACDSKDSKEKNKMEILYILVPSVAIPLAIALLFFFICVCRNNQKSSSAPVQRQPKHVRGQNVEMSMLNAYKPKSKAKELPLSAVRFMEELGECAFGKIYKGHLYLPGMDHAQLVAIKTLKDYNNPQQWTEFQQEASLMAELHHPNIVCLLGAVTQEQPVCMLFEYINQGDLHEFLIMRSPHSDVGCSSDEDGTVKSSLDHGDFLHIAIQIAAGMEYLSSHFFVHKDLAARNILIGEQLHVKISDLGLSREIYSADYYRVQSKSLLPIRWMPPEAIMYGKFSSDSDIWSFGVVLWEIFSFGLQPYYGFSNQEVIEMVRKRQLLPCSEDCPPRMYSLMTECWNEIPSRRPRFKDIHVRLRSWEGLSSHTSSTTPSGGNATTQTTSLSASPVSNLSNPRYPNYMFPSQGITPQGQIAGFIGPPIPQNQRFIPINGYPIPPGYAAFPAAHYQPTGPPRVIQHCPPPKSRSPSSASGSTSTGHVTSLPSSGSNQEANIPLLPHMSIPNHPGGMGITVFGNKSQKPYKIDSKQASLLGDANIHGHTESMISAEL
Assay: flow cytometry on MDA-MB-231 cells

| EC50 | Binder |
| --- | --- |
| 0.0634 µg/mL | B1 |
| 0.0818 µg/mL | B2 |

Biological target: T1, human ROR1 expressed on cells …
Assay: flow cytometry on MDA-MB-231 cells
Remark: another data set of the same source

| EC50 | Binder |
| --- | --- |
| 0.03 µg/mL | B3 |
| 0.05 µg/mL | B4 |

Biological target: T1, human ROR1 expressed on cells …
Assay: flow cytometry on Jeko-1 cells

| EC50 | MFI fold | Binder |
| --- | --- | --- |
| 0.19 nM | 8.2 fold | B5 |
| 0.031 nM | 2.8 fold | B6 |
| 0.15 nM | 3.6 fold | B4 |

Biological target: T2, human ROR1 protein (recombinant ROR1 antigen, Kactus Biosystems) (human, UniProt Q01973 30-406, limits assumed)
T2 sequence (Q01973 30-406 limits assumed): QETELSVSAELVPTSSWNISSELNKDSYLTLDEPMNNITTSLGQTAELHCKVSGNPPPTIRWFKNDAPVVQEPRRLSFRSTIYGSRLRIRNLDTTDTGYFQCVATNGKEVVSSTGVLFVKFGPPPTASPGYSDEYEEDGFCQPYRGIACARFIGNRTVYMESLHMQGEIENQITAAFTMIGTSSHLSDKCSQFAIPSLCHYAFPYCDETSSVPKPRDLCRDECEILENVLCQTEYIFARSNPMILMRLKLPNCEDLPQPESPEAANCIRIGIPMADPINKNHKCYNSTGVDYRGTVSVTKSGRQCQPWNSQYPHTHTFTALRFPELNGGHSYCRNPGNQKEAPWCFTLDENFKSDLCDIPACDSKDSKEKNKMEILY
Assay: binding to ROR1 (column 'Binding to ROR1'; method not described)

| EC50 | Binder |
| --- | --- |
| 0.0123 µg/mL | B6 |
| 0.0144 µg/mL | B7 |

Biological target: T2, human ROR1 protein (recombinant ROR1 …)
Assay: as above
Remark: another data set of the same source

| EC50 | Binder |
| --- | --- |
| 0.01 µg/mL | B3 |
| 0.01 µg/mL | B4 |

Biological target: T2, human ROR1 protein (recombinant ROR1 …)
Assay: BLI (Octet R8), antibody captured on AHC sensor, ROR1 antigen as analyte

| Kd | Binder |
| --- | --- |
| 9.82 nM | B3 |
| 10 nM | B8 |
| 6.21 nM | B9 |
| 11.3 nM | B10 |
| 7.63 nM | B11 |
| 63.6 nM | B2 |

Biological target: T3, human ROR2 protein (hROR2, Kactus Biosystems, Cat. No. ROR-HM402) (human, UniProt Q01974 34-403, limits assumed)
T3 sequence (Q01974 34-403 limits assumed): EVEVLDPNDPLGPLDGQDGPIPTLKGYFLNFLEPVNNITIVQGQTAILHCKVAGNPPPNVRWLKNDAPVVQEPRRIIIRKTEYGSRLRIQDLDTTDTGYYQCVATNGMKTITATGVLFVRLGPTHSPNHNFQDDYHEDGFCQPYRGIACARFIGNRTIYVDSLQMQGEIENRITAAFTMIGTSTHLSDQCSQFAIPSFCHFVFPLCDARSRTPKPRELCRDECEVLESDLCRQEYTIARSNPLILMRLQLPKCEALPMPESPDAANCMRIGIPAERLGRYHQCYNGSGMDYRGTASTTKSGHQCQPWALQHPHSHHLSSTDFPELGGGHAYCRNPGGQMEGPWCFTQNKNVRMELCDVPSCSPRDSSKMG
Assay: ELISA, plate coated with hROR2

| binding result | Binder |
| --- | --- |
| binds | B12 |
| binds | B13 |
| binds | B14 |
| binds | B15 |
| binds | B16 |

| Binder | binding result |
| --- | --- |
| B4 | no binding (tested: starting from 333.33 nM) |

Biological target: T1, human ROR1 expressed on cells …
Assay: flow cytometry on PA-1 cells

| EC50 | MFI fold | Binder |
| --- | --- | --- |
| 0.41 nM | 7 fold | B5 |
| 0.33 nM | 2.5 fold | B6 |
| 0.25 nM | 2.6 fold | B4 |

Biological target: T1, human ROR1 expressed on cells …
Assay: flow cytometry on Jeko-1 cells
Remark: another data set of the same source

| EC50 | Binder |
| --- | --- |
| 0.005 µg/mL | B3 |
| 0.01 µg/mL | B10 |
| 0.007 µg/mL | B11 |
| 0.03 µg/mL | B2 |

Biological target: T2, human ROR1 protein (recombinant ROR1 …)
Assay: BLI (Octet R8)

| fold affinity against H10-hVH4-hVL4 | Binder |
| --- | --- |
| 9 fold | B6 |

Biological target: T1, human ROR1 expressed on cells …
Assay: flow cytometry on MDA-MB-231 cells
Remark: another data set of the same source

| EC50 | Binder |
| --- | --- |
| 0.02 µg/mL | B3 |
| 0.06 µg/mL | B10 |
| 0.02 µg/mL | B11 |
| 0.09 µg/mL | B2 |

Biological target: T2, human ROR1 protein (recombinant ROR1 …)
Assay: BLI (Octet R8), antibody captured on AHC sensor, ROR1 antigen as analyte
Remark: another data set of the same source

| Kd | Binder |
| --- | --- |
| 26.6 nM | B1 |
| 32.3 nM | B2 |

Biological target: T2, human ROR1 protein (recombinant ROR1 …)
Assay: as above
Remark: another data set of the same source

| Kd | Binder |
| --- | --- |
| 18 nM | B3 |
| 19 nM | B4 |
| 16 nM | B12 |
| 14 nM | B13 |
| 16 nM | B14 |
| 16 nM | B15 |
| 14 nM | B16 |

Biological target: T3, human ROR2 protein (hROR2, Kactus …)
Assay: ELISA, plate coated with hROR2
Remark: another data set of the same source

| Binder | binding result |
| --- | --- |
| B6 | no binding (tested: starting from 333.33 nM) |
| B7 | no binding (tested: starting from 333.33 nM) |

Biological target: T3, human ROR2 protein (hROR2, Kactus …)
Assay: ELISA, plate coated with hROR2
Remark: another data set of the same source

| Binder | binding result |
| --- | --- |
| B1 | no binding (tested: starting from 333.33 nM) |
| B2 | no binding (tested: starting from 333.33 nM) |

Biological target: T1, human ROR1 expressed on cells …
Assay: flow cytometry on MDA-MB-231 cells
Remark: another data set of the same source

| EC50 | Binder |
| --- | --- |
| 0.011 µg/mL | B6 |
| 0.0304 µg/mL | B7 |

Biological target: T3, human ROR2 protein (hROR2, Kactus …)
Assay: ELISA, plate coated with hROR2
Remark: another data set of the same source

| binding result | Binder |
| --- | --- |
| binds | B8 |
| binds | B9 |
| binds | B10 |
| binds | B11 |

| Binder | binding result |
| --- | --- |
| B3 | no binding (tested: starting from 333.33 nM) |

Biological target: T2, human ROR1 protein (recombinant ROR1 …)
Assay: BLI (Octet R8), antibody captured on AHC sensor, ROR1 antigen as analyte
Remark: another data set of the same source

| Kd | Binder |
| --- | --- |
| 5 nM | B6 |
| 47 nM | B7 |
